From patent US5336615

Molecular target: human plasminogen (human) (UniProt P00747)

u-PA activity (mPU/µg cell protein): 4.9
Substance: bovine urokinase-type plasminogen activator (u-PA) (from UniProt Q05589) (enzyme)
